# Measured values: article PMC10320017
# Target: SARS-CoV-1 S/native spike ectodomain (with C-terminal foldon and His tag) (SARS coronavirus Tor2 (SARS-CoV-1))
# Experiment: negative-stain EM
substance,measurement,value
SARS-CoV-1 S/native spike ectodomain (with C-terminal foldon and His tag) (domain or fragment),stoichiometry N,3
